According to the supplement of paper PMC11246515:
± gives the standard deviation of the averaged measurements.

Experiment: total protein half-life in vivo (active degradation + dilution); higher = more stable protein
[1] = E. coli NCM3722 delta-clpP delta-lon delta-hslV, growth: N-lim chemostat, doubling time 6 h
[2] = E. coli NCM3722 delta-clpP, growth: N-lim chemostat, doubling time 6 h
[3] = wild type E. coli NCM3722, growth: C-lim chemostat, doubling time 3 h
[4] = E. coli NCM3722 delta-hslV, growth: N-lim chemostat, doubling time 6 h
[5] = E. coli NCM3722 delta-lon, growth: N-lim chemostat, doubling time 6 h
[6] = E. coli NCM3722 delta-smpB, growth: N-lim chemostat, doubling time 6 h
[7] = wild type E. coli NCM3722, growth: C-lim chemostat, doubling time 12 h
[8] = wild type E. coli NCM3722, growth: N-lim chemostat, doubling time 6 h
[9] = wild type E. coli NCM3722, growth: N-lim chemostat, doubling time 12 h
[10] = wild type E. coli NCM3722, growth: P-lim chemostat, doubling time 6 h
[11] = wild type E. coli NCM3722, growth: P-lim chemostat, doubling time 12 h
[12] = wild type E. coli NCM3722, growth: C-lim chemostat, doubling time 6 h

Sequence	total protein half-life in vivo [1] [h]	total protein half-life in vivo [2] [h]	total protein half-life in vivo [3] [h]	total protein half-life in vivo [4] [h]	total protein half-life in vivo [5] [h]	total protein half-life in vivo [6] [h]	total protein half-life in vivo [7] [h]	total protein half-life in vivo [8] [h]	total protein half-life in vivo [9] [h]	total protein half-life in vivo [10] [h]	total protein half-life in vivo [11] [h]	total protein half-life in vivo [12] [h]
MSALNSLPLPVVRLLAFFHEELSERRPGRVPQTVQLWVGCLLVILISMTFEIPFVALSLAVLFYGIQSNAFYTKFVAILFVVATVLEIGSLFLIYKWSYGEPLIRLIIAGPILMGCMFLMRTHRLGLVFFAVAIVAIYGQTFPAMLDYPEVVVRLTLWCIVVGLYPTLLMTLIGVLWFPSRAISQMHQALNDRLDDAISHLTDSLAPLPETRIEREALALQKLNVFCLADDANWRTQNAWWQSCVATVTYIYSTLNRYDPTSFADSQAIIEFRQKLASEINKLQHAVAEGQCWQSDWRISESEAMAARECNLENICQTLLQLGQMDPNTPPTPAAKPPSMAADAFTNPDYMRYAVKTLLACLICYTFYSGVDWEGIHTCMLTCVIVANPNVGSSYQKMVLRFGGAFCGAILALLFTLLVMPWLDNIVELLFVLAPIFLLGAWIATSSERSSYIGTQMVVTFALATLENVFGPVYDLVEIRDRALGIIIGTVVSAVIYTFVWPESEARTLPQKLAGTLGMLSKVMRIPRQQEVTALRTYLQIRIGLHAAFNACEEMCQRVALERQLDSEERALLIERSQTVIRQGRDLLHAWDATWNSAQALDNALQPDRAGQFADALEKYAAGLATALSRSPQITLEETPASQAILPTLLKQEQHVCQLFARLPDWTAPALTPATEQAQGATQ	5.28	> 8	0.524									
MSANENNLIWIDLEMTGLDPERDRIIEIATLVTDANLNILAEGPTIAVHQSDEQLALMDDWNVRTHTASGLVERVKASTMGDREAELATLEFLKQWVPAGKSPICGNSIGQDRRFLFKYMPELEAYFHYRYLDVSTLKELARRWKPEILDGFTKQGTHQAMDDIRESVAELAYYREHFIKL [P0A784]		4.86 ± 0.7	3.41 ± 0.36	4.688 ± 0.041	6.132 ± 0.0019	4.64 ± 0.34	13 ± 1.9	4.65 ± 0.63	8.25 ± 0.81	5.87 ± 0.32	13.6 ± 0.93	
MSASALVCLAPGSEETEAVTTIDLLVRGGIKVTTASVASDGNLAITCSRGVKLLADAPLVEVADGEYDVIVLPGGIKGAECFRDSTLLVETVKQFHRSGRIVAAICAAPATVLVPHDIFPIGNMTGFPTLKDKIPAEQWLDKRVVWDARVKLLTSQGPGTAIDFGLKIIDLLVGREKAHEVASQLVMAAGIYNYYE	5.064 ± 0.047		2.69 ± 0.31	5.39 ± 1.1	4.534 ± 0.022	4.23 ± 0.24	9.53 ± 0.47	4.21 ± 0.22	7.09 ± 0.18	5.81 ± 0.065		5.15 ± 0.32
MSAVLTAEQALKLVGEMFVYHMPFNRALGMELERYEKEFAQLAFKNQPMMVGNWAQSILHGGVIASALDVAAGLVCVGSTLTRHETISEDELRQRLSRMGTIDLRVDYLRPGRGERFTATSSLLRAGNKVAVARVELHNEEQLYIASATATYMVG [P0ADP2]	5.02 ± 0.33	2.3 ± 0.16	2.82 ± 0.14	2.36 ± 0.08	3.45 ± 0.78	2.22 ± 0.052	7.1 ± 2.8	2.54 ± 0.22	4.13 ± 0.42	5 ± 0.1	12.5 ± 1	5.73 ± 0.62
MSDDVALPLEFTDAAANKVKSLIADEDNPNLKLRVYITGGGCSGFQYGFTFDDQVNEGDMTIEKQGVGLVVDPMSLQYLVGGSVDYTEGLEGSRFIVTNPNAKSTCGCGSSFSI [P0ACC3]	5.22 ± 1.4		1.62 ± 0.23	2.03 ± 0.4	3.62 ± 0.25	1.74 ± 0.059	3.62 ± 0.69	1.71 ± 0.19	2.43 ± 0.26	2.4 ± 0.14	4.84 ± 0.42	2.89 ± 0.6
MSDISKASLPKAIFLMGPTASGKTALAIELRKILPVELISVDSALIYKGMDIGTAKPNAEELLAAPHRLLDIRDPSQAYSAADFRRDALAEMADITAAGRIPLLVGGTMLYFKALLEGLSPLPSADPEVRARIEQQAAEQGWESLHRQLQEVDPVAAARIHPNDPQRLSRALEVFFISGKTLTELTQTSGDALPYQVHQFAIAPASRELLHQRIEQRFHQMLASGFEAEVRALFARGDLHTDLPSIRCVGYRQMWSYLEGEISYDEMVYRGVCATRQLAKRQITWLRGWEGVHWLDSEKPEQARDEVLQVVGAIAG		4.338 ± 0.019	3.18 ± 0.12	5.26 ± 1.1	5.42 ± 0.37	4.279 ± 0.03	8.97 ± 0.41	4.32 ± 0.4	6.84 ± 1.1	5.67 ± 0.43	11.71 ± 0.1	5.47 ± 0.15
MSDKFGEGRDPYLYPGLDIMRNRLNIRQQQRLEQAAYEMTALRAATIELGPLVRGLPHLRTIHRQLYQDIFDWAGQLREVDIYQGDTPFCHFAYIEKEGNALMQDLEEEGYLVGLEKAKFVERLAHYYCEINVLHPFRVGSGLAQRIFFEQLAIHAGYQLSWQGIEKEAWNQANQSGAMGDLTALQMIFSKVVSEAGESE	4.96 ± 0.27	4.09 ± 0.47		4.81 ± 0.64	4.4 ± 0.57	4.69 ± 0.42	10.2 ± 1.9	4.39 ± 0.17	7.12 ± 0.43	6.02 ± 0.4	7.72 ± 3.9	6.07 ± 0.18
MSDLLCSAKLGAMTLALLLSATSLSALASVTPDRTRLIFNESDKSISVTLRNNDPKLPYLAQSWIEDEKGNKITSPLTVLPPVQRIDSMMNGQVKVQGMPDINKLPADRESMFYFNVREIPPKSNKPNTLQIALQTRIKLFWRPKALEKVSMKSPWQHKVTLTRSGQAFTVNNPTPYYVIISNASAQKNGNPAAGFSPLVIEPKTTVPLNVKMDSVPVLTYVNDFGARMPLFFQCNGNSCQVDEEQSRKG										4.16		
